Publication PMC9599917, “Reshaping the Binding Pocket of the Neurotransmitter:Solute Symporter (NSS) Family Transporter SLC6A14 (ATB^0,+) Selectively Reduces Access for Cationic Amino Acids and Derivatives” (Biomolecules, 2022)

Tests used:
Format in all cases: cell-based, Homo sapiens
[1] = substrate: N=C(N)NCCC[C@H](N)C(=O)O; experiment: two-electrode voltage clamp in oocytes (Km); competition with [3H]serine uptake; conditions: Na+ and Cl- substrate binding pocket, competes with serine; lost in V128F
[2] = substrate: N[C@@H](CO)C(=O)O; experiment: two-electrode voltage clamp in oocytes (Km); radiolabelled uptake; conditions: Na+ and Cl-
[3] = substrate: N=C(N)NCCC[C@H](N)C(=O)O; experiment: two-electrode voltage clamp in oocytes (Km); conditions: Na+ and Cl-
[4] = substrate: N[C@@H](CO)C(=O)O; experiment: two-electrode voltage clamp in oocytes (Km); radiolabelled uptake; conditions: Na+ and Cl-; remark: listed apart in the source
Excerpt: two-electrode voltage clamp in oocytes (Km); radiolabelled uptake on SLC6A14 (ATB0,+) | In SLC6A14-V128I, the affinity for serine increased by five-fold

Row | Protein | Km [1] [µM] | Km [2] [µM] | Km [3] [µM] | Km [4] [µM]
1 | SLC6A14 (ATB0,+) (Homo sapiens) (protein, human SLC6A14 expressed in Xenopus laevis oocytes) MDKLKCPSFFKCREKEKVSASSENFHVGENDENQDRGNWSKKSDYLLSMIGYAVGLGNVWRFPYLTYSNGGGAFLIPYAIMLALAGLPLFFLECSLGQFASLGPVSVWRILPLFQGVGITMVLISIFVTIYYNVIIAYSLYYMFASFQSELPWKNCSSWSDKNCSRSPIVTHCNVSTVNKGIQEIIQMNKSWVDINNFTCINGSEIYQPGQLPSEQYWNKVALQRSSGMNETGVIVWYLALCLLLAWLIVGAALFKGIKSSGKVVYFTALFPYVVLLILLVRGATLEGASKGISYYIGAQSNFTKLKEAEVWKDAATQIFYSLSVAWGGLVALSSYNKFKNNCFSDAIVVCLTNCLTSVFAGFAIFSILGHMAHISGKEVSQVVKSGFDLAFIAYPEALAQLPGGPFWSILFFFMLLTLGLDSQFASIETITTTIQDLFPKVMKKMRVPITLGCCLVLFLLGLVCVTQAGIYWVHLIDHFCAGWGILIAAILELVGIIWIYGGNRFIEDTEMMIGAKRWIFWLWWRACWFVITPILLIAIFIWSLVQFHRPNYGAIPYPDWGVALGWCMIVFCIIWIPIMAIIKIIQAKGNIFQRLISCCRPASNWGPYLEQHRGERYKDMVDPKKEADHEIPTVSGSRKPE | 91 ± 11 | 106 ± 5 | – | –
2 | SLC6A14 (ATB0,+) (Homo sapiens; V128I) (protein, human SLC6A14-V128I expressed in Xenopus laevis oocytes) MDKLKCPSFFKCREKEKVSASSENFHVGENDENQDRGNWSKKSDYLLSMIGYAVGLGNVWRFPYLTYSNGGGAFLIPYAIMLALAGLPLFFLECSLGQFASLGPVSVWRILPLFQGVGITMVLISIFITIYYNVIIAYSLYYMFASFQSELPWKNCSSWSDKNCSRSPIVTHCNVSTVNKGIQEIIQMNKSWVDINNFTCINGSEIYQPGQLPSEQYWNKVALQRSSGMNETGVIVWYLALCLLLAWLIVGAALFKGIKSSGKVVYFTALFPYVVLLILLVRGATLEGASKGISYYIGAQSNFTKLKEAEVWKDAATQIFYSLSVAWGGLVALSSYNKFKNNCFSDAIVVCLTNCLTSVFAGFAIFSILGHMAHISGKEVSQVVKSGFDLAFIAYPEALAQLPGGPFWSILFFFMLLTLGLDSQFASIETITTTIQDLFPKVMKKMRVPITLGCCLVLFLLGLVCVTQAGIYWVHLIDHFCAGWGILIAAILELVGIIWIYGGNRFIEDTEMMIGAKRWIFWLWWRACWFVITPILLIAIFIWSLVQFHRPNYGAIPYPDWGVALGWCMIVFCIIWIPIMAIIKIIQAKGNIFQRLISCCRPASNWGPYLEQHRGERYKDMVDPKKEADHEIPTVSGSRKPE | – | – | 60 ± 8 | 20 ± 3
3 | SLC6A14 (ATB0,+) (Homo sapiens; V128F) (protein, human SLC6A14-V128F expressed in Xenopus laevis oocytes) MDKLKCPSFFKCREKEKVSASSENFHVGENDENQDRGNWSKKSDYLLSMIGYAVGLGNVWRFPYLTYSNGGGAFLIPYAIMLALAGLPLFFLECSLGQFASLGPVSVWRILPLFQGVGITMVLISIFFTIYYNVIIAYSLYYMFASFQSELPWKNCSSWSDKNCSRSPIVTHCNVSTVNKGIQEIIQMNKSWVDINNFTCINGSEIYQPGQLPSEQYWNKVALQRSSGMNETGVIVWYLALCLLLAWLIVGAALFKGIKSSGKVVYFTALFPYVVLLILLVRGATLEGASKGISYYIGAQSNFTKLKEAEVWKDAATQIFYSLSVAWGGLVALSSYNKFKNNCFSDAIVVCLTNCLTSVFAGFAIFSILGHMAHISGKEVSQVVKSGFDLAFIAYPEALAQLPGGPFWSILFFFMLLTLGLDSQFASIETITTTIQDLFPKVMKKMRVPITLGCCLVLFLLGLVCVTQAGIYWVHLIDHFCAGWGILIAAILELVGIIWIYGGNRFIEDTEMMIGAKRWIFWLWWRACWFVITPILLIAIFIWSLVQFHRPNYGAIPYPDWGVALGWCMIVFCIIWIPIMAIIKIIQAKGNIFQRLISCCRPASNWGPYLEQHRGERYKDMVDPKKEADHEIPTVSGSRKPE | – | 142 ± 11 | – | –
